System: hematopoietic stem and progenitor cells (HSPCs)
Assay: G-CSF-induced mobilization of hematopoietic progenitors (circulating CFU-C)
Type: in vivo, mice
Experimental: To induce HSPC mobilization, mice were injected with recombinant human G-CSF (Filgrastim, Amgen, Thousand Oaks, Calif., 250 μg/kg/day, every 12 hours, 8 divided doses, s.c.) in PBS supplemented with 0.1% endotoxin free bovine serum albumin (BSA) or fucoidan (Sigma; 2 doses of 100 mg/kg with 2 h interval, i.p.) in PBS. Blood was harvested 3 h (G-CSF) or 1 h (fucoidan). CFU-C assays were carried out as previously described (Katayama, Y., and Frenette, P. S. (2003). Galactocerebrosides are required postnatally for stromal-dependent bone marrow lymphopoiesis. Immunity 18, 789-800).
A chronic guide cannula (1.0 mm) was implanted stereotaxically into the lateral ventricle (coordinates AP, −0.7 mm; DV, −2.4 mm; ML, 1.5 mm, from bregma). One week after implantation, mice received a reduced dose of G-CSF (25 μg/kg daily for 4 doses) either by ICV infusion (rate: 0.4 μL/min) or by s.c. injection.
Newborn C57BL/6 mice were injected s.c. with 6OHDA (100 mg/kg, Sigma) or vehicle (saline) on postnatal days 2, 4, 6, 8 and 9. HSPC mobilization was induced at 3 weeks of age. For SNS disruption in adult C57BL6 mice, 4 week-old animals were injected i.p. with 2 doses of 6OHDA or vehicle, 100 mg/kg on day 0, 250 mg/kg on day 2, and G-CSF treatment was begun on day 5. For β-adrenergic receptor blockade, 4 week-old C57BL/6 mice were treated with propranolol (0.5 g/L in drinking water, Sigma) or control pure water for 3 weeks prior to mobilization. For rescue experiments, clenbuterol (2 mg/kg/day, i.p.) was injected starting day −2 prior to and continued during G-CSF treatment.

B1: G-CSF: recombinant human G-CSF (Filgrastim, Amgen), hematopoietic cytokine used to elicit HSPC mobilization (protein, UniProt P09919 31-207, looked up)
Granulocyte …: TPLGPASSLPQSFLLKCLEQVRKIQGDGAALQEKLVSECATYKLCHPEELVLLGHSLGIPWAPLSSCPSQALQLAGCLSQLHSGLFLYQGLLQALEGISPELGPTLDTLQLDVADFATTIWQQMEELGMAPALQPTQGAMPAFASAFQRRAGGVLVASHLQSFLEVSYRVLRHLAQP
modifications: filgrastim
notes: recombinant human G-CSF (Filgrastim, Amgen), hematopoietic cytokine used to elicit HSPC mobilization
C57BL/6 mice, ICV infusion vs s.c. injection, 25 μg/kg daily for 4 doses
  HSPC mobilization by route of G-CSF: robust HSPC mobilization occurred only when mice were treated systemically
CD45.1 wild-type mice reconstituted with Cgt+/+ or −/− BM
  G-CSF-induced mobilization in chimeric mice: similar
Cgt−/− mice compared to Cgt+/− or +/+ littermates
  G-CSF-induced mobilization of HSPCs: little mobilization
Dbh−/− compared to Dbh+/− littermates
  G-CSF-triggered mobilization of CFU-Cs and Lin-Sca-1+c-kit+ cells: dramatically compromised
Lepr(db/db) vs Lepr(+/db) mice, human G-CSF 250 μg/kg/day, n=5
  numbers of circulating progenitors after G-CSF: no difference
Rag 1−/− and IL7Rα−/− mice, data not shown
  circulating CFU-Cs elicited by G-CSF: elicited at levels similar to those of wild-type mice

Reference: patent US7939057B2, “Methods and compositions for modulating the mobilization of stem cells” (Mount Sinai School of Medicine, priority 2006, dated 2011)
